Patent US20250163186A1 (PHYLAXIS BIOSCIENCE, published 2025)

Target: T1, human IgE (human, UniProt P01854 1-428)
T1 construct: written under the same molecule; also called IgE (Abcam ab65866); soluble IgE
Test: ELISA, clone lysate on IgE-coated plate
Source text: Each amino acid in CDR1 (SEQ ID NO:3), CDR2 (SEQ ID NO:68), and CDR3 (SEQ ID NO:74) was randomly replaced such that the 20 natural amino acids would likely all have been sampled at every position. The expression vector for the VHH containing the mutagenized CDRs was then transfected into E. coli, and at least 96 clones were randomly chosen for each position mutated in each CDR. This gives likely coverage of all potential mutations at each position since the probability to get any given amino acid at that position is 5%. […] The heat maps represent the relative binding for each clone determined by the range of OD values from the ELISA background to WT CDR binding (FIGS. 16A-16C). Site numbering for each residue tested is indicated by the inset tables in FIGS. 16A-16C.

T1 sequence (P01854 other isoform, or with tags, fused parts or gaps limits assumed, form in doubt): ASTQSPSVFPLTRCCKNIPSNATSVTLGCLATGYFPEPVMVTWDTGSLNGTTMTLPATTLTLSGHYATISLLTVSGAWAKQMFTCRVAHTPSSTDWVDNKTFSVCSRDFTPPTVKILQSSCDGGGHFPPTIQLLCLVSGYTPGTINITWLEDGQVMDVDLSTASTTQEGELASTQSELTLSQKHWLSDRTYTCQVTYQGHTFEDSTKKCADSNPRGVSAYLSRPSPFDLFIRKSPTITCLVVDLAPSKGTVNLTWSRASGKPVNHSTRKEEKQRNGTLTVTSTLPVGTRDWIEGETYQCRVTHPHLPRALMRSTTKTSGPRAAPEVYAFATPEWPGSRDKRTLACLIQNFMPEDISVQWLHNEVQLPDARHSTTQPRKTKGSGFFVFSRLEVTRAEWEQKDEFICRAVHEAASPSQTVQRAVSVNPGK

Row | Binder | Confirm OD450 Duplicate1 | Confirm OD450 Duplicate2 | R1 Screening OD450
1 | 2-1F11 (VHH, also called hzB10v40 VHH, CDR1 site 2 L to I) VHH: EVQLLESGGGEVQPGGSLRLSCVASGITFSSYNMGWLRQAPGKEREFVGLSGSSSTSTYYAESVKGRFTISRDNAKNTVYLQMTSLRAEDTAVYYCAARRLLSTYWSDRSWDFWGQGTLVTVEP | 0.647 | 0.601 | 0.754
2 | 8H11 (VHH, also called hzB10v40 VHH, CDR1 site 8 N to R) VHH: EVQLLESGGGEVQPGGSLRLSCVASGLTFSSYRMGWLRQAPGKEREFVGLSGSSSTSTYYAESVKGRFTISRDNAKNTVYLQMTSLRAEDTAVYYCAARRLLSTYWSDRSWDFWGQGTLVTVEP | 0.571 | 0.568 | 0.97
3 | 6C2 (VHH, also called hzB10v40 VHH, CDR1 site 6 S to Q) VHH: EVQLLESGGGEVQPGGSLRLSCVASGLTFSQYNMGWLRQAPGKEREFVGLSGSSSTSTYYAESVKGRFTISRDNAKNTVYLQMTSLRAEDTAVYYCAARRLLSTYWSDRSWDFWGQGTLVTVEP | 0.534 | 0.526 | 0.826
4 | 6E11 (VHH, also called hzB10v40 VHH, CDR1 site 6 S to T) VHH: EVQLLESGGGEVQPGGSLRLSCVASGLTFSTYNMGWLRQAPGKEREFVGLSGSSSTSTYYAESVKGRFTISRDNAKNTVYLQMTSLRAEDTAVYYCAARRLLSTYWSDRSWDFWGQGTLVTVEP | 0.454 | 0.468 | 0.817
5 | 3-1A1 (VHH, also called hzB10v40 VHH, CDR1 site 3 T to V) VHH: EVQLLESGGGEVQPGGSLRLSCVASGLVFSSYNMGWLRQAPGKEREFVGLSGSSSTSTYYAESVKGRFTISRDNAKNTVYLQMTSLRAEDTAVYYCAARRLLSTYWSDRSWDFWGQGTLVTVEP | 0.607 | 0.572 | 0.896
6 | 6F11 (VHH, also called hzB10v40 VHH, CDR1 site 6 S to R) VHH: EVQLLESGGGEVQPGGSLRLSCVASGLTFSRYNMGWLRQAPGKEREFVGLSGSSSTSTYYAESVKGRFTISRDNAKNTVYLQMTSLRAEDTAVYYCAARRLLSTYWSDRSWDFWGQGTLVTVEP | 0.417 | 0.402 | 0.885
7 | 9B1 (VHH, also called hzB10v40 VHH, CDR1 site 9 M to V) VHH: EVQLLESGGGEVQPGGSLRLSCVASGLTFSSYNVGWLRQAPGKEREFVGLSGSSSTSTYYAESVKGRFTISRDNAKNTVYLQMTSLRAEDTAVYYCAARRLLSTYWSDRSWDFWGQGTLVTVEP | 0.452 | 0.454 | 0.879
8 | 5C3 (VHH, also called hzB10v40 VHH, CDR1 site 5 S to D) VHH: EVQLLESGGGEVQPGGSLRLSCVASGLTFDSYNMGWLRQAPGKEREFVGLSGSSSTSTYYAESVKGRFTISRDNAKNTVYLQMTSLRAEDTAVYYCAARRLLSTYWSDRSWDFWGQGTLVTVEP | 0.546 | 0.556 | 0.897
9 | 5A10 (VHH, also called hzB10v40 VHH, CDR1 site 5 S to A) VHH: EVQLLESGGGEVQPGGSLRLSCVASGLTFASYNMGWLRQAPGKEREFVGLSGSSSTSTYYAESVKGRFTISRDNAKNTVYLQMTSLRAEDTAVYYCAARRLLSTYWSDRSWDFWGQGTLVTVEP | 0.554 | 0.549 | 0.96
10 | 5H11 (VHH, also called hzB10v40 VHH, CDR1 site 5 S to R) VHH: EVQLLESGGGEVQPGGSLRLSCVASGLTFRSYNMGWLRQAPGKEREFVGLSGSSSTSTYYAESVKGRFTISRDNAKNTVYLQMTSLRAEDTAVYYCAARRLLSTYWSDRSWDFWGQGTLVTVEP | 0.545 | 0.55 | 0.893
11 | 3-1B9 (VHH, also called hzB10v40 VHH, CDR1 site 3 T to N) VHH: EVQLLESGGGEVQPGGSLRLSCVASGLNFSSYNMGWLRQAPGKEREFVGLSGSSSTSTYYAESVKGRFTISRDNAKNTVYLQMTSLRAEDTAVYYCAARRLLSTYWSDRSWDFWGQGTLVTVEP | 0.585 | 0.634 | 0.945
12 | 3-1B10 (VHH, also called hzB10v40 VHH, CDR1 site 3 T to K) VHH: EVQLLESGGGEVQPGGSLRLSCVASGLKFSSYNMGWLRQAPGKEREFVGLSGSSSTSTYYAESVKGRFTISRDNAKNTVYLQMTSLRAEDTAVYYCAARRLLSTYWSDRSWDFWGQGTLVTVEP | 0.57 | 0.594 | 0.904
13 | 6A9 (VHH, also called hzB10v40 VHH, CDR1 site 6 S to E) VHH: EVQLLESGGGEVQPGGSLRLSCVASGLTFSEYNMGWLRQAPGKEREFVGLSGSSSTSTYYAESVKGRFTISRDNAKNTVYLQMTSLRAEDTAVYYCAARRLLSTYWSDRSWDFWGQGTLVTVEP | 0.475 | 0.488 | 0.852
14 | 2-2C3 (VHH, also called hzB10v40 VHH, CDR1 site 2 L to V) VHH: EVQLLESGGGEVQPGGSLRLSCVASGVTFSSYNMGWLRQAPGKEREFVGLSGSSSTSTYYAESVKGRFTISRDNAKNTVYLQMTSLRAEDTAVYYCAARRLLSTYWSDRSWDFWGQGTLVTVEP | 0.621 | 0.62 | 0.914
15 | 4-2E2 (VHH, also called hzB10v40 VHH, CDR1 site 4 F to G) VHH: EVQLLESGGGEVQPGGSLRLSCVASGLTGSSYNMGWLRQAPGKEREFVGLSGSSSTSTYYAESVKGRFTISRDNAKNTVYLQMTSLRAEDTAVYYCAARRLLSTYWSDRSWDFWGQGTLVTVEP | 0.579 | 0.586 | 1.05
16 | 6H1 (VHH, also called hzB10v40 VHH, CDR1 site 6 S to P) VHH: EVQLLESGGGEVQPGGSLRLSCVASGLTFSPYNMGWLRQAPGKEREFVGLSGSSSTSTYYAESVKGRFTISRDNAKNTVYLQMTSLRAEDTAVYYCAARRLLSTYWSDRSWDFWGQGTLVTVEP | 0.487 | 0.53 | 0.908
17 | 9E8 (VHH, also called hzB10v40 VHH, CDR1 site 9 M to L) VHH: EVQLLESGGGEVQPGGSLRLSCVASGLTFSSYNLGWLRQAPGKEREFVGLSGSSSTSTYYAESVKGRFTISRDNAKNTVYLQMTSLRAEDTAVYYCAARRLLSTYWSDRSWDFWGQGTLVTVEP | 0.522 | 0.539 | 0.897
18 | 8F11 (VHH, also called hzB10v40 VHH, CDR1 site 8 N to T) VHH: EVQLLESGGGEVQPGGSLRLSCVASGLTFSSYTMGWLRQAPGKEREFVGLSGSSSTSTYYAESVKGRFTISRDNAKNTVYLQMTSLRAEDTAVYYCAARRLLSTYWSDRSWDFWGQGTLVTVEP | 0.52 | 0.559 | 0.922
19 | 9D1 (VHH, also called hzB10v40 VHH, CDR1 site 9 M to I) VHH: EVQLLESGGGEVQPGGSLRLSCVASGLTFSSYNIGWLRQAPGKEREFVGLSGSSSTSTYYAESVKGRFTISRDNAKNTVYLQMTSLRAEDTAVYYCAARRLLSTYWSDRSWDFWGQGTLVTVEP | 0.435 | 0.442 | 0.905
20 | 3-1H1 (VHH, also called hzB10v40 VHH, CDR1 site 3 T to I) VHH: EVQLLESGGGEVQPGGSLRLSCVASGLIFSSYNMGWLRQAPGKEREFVGLSGSSSTSTYYAESVKGRFTISRDNAKNTVYLQMTSLRAEDTAVYYCAARRLLSTYWSDRSWDFWGQGTLVTVEP | 0.567 | 0.559 | 0.857
21 | 4-1F10 (VHH, also called hzB10v40 VHH, CDR1 site 4 F to Y) VHH: EVQLLESGGGEVQPGGSLRLSCVASGLTYSSYNMGWLRQAPGKEREFVGLSGSSSTSTYYAESVKGRFTISRDNAKNTVYLQMTSLRAEDTAVYYCAARRLLSTYWSDRSWDFWGQGTLVTVEP | 0.697 | 0.545 | 0.709
22 | 8G10 (VHH, also called hzB10v40 VHH, CDR1 site 8 N to S) VHH: EVQLLESGGGEVQPGGSLRLSCVASGLTFSSYSMGWLRQAPGKEREFVGLSGSSSTSTYYAESVKGRFTISRDNAKNTVYLQMTSLRAEDTAVYYCAARRLLSTYWSDRSWDFWGQGTLVTVEP | 0.534 | 0.552 | 0.917
23 | 5A1 (VHH, also called hzB10v40 VHH, CDR1 site 5 S to K) VHH: EVQLLESGGGEVQPGGSLRLSCVASGLTFKSYNMGWLRQAPGKEREFVGLSGSSSTSTYYAESVKGRFTISRDNAKNTVYLQMTSLRAEDTAVYYCAARRLLSTYWSDRSWDFWGQGTLVTVEP | 0.609 | 0.573 | 0.914
24 | 4-1F11 (VHH, also called hzB10v40 VHH, CDR1 site 4 F to P) VHH: EVQLLESGGGEVQPGGSLRLSCVASGLTPSSYNMGWLRQAPGKEREFVGLSGSSSTSTYYAESVKGRFTISRDNAKNTVYLQMTSLRAEDTAVYYCAARRLLSTYWSDRSWDFWGQGTLVTVEP | 0.582 | 0.483 | 0.798
25 | 9F1 (VHH, also called hzB10v40 VHH, CDR1 site 9 M to S) VHH: EVQLLESGGGEVQPGGSLRLSCVASGLTFSSYNSGWLRQAPGKEREFVGLSGSSSTSTYYAESVKGRFTISRDNAKNTVYLQMTSLRAEDTAVYYCAARRLLSTYWSDRSWDFWGQGTLVTVEP | 0.498 | 0.467 | 0.921
26 | 6G9 (VHH, also called hzB10v40 VHH, CDR1 site 6 S to A) VHH: EVQLLESGGGEVQPGGSLRLSCVASGLTFSAYNMGWLRQAPGKEREFVGLSGSSSTSTYYAESVKGRFTISRDNAKNTVYLQMTSLRAEDTAVYYCAARRLLSTYWSDRSWDFWGQGTLVTVEP | 0.556 | 0.512 | 0.875
